{
  "source": "paper PMC6175940",
  "about": "“Increasing the distance between two monomers of topoisomerase IIβ under the action of antitumor agent 4β-sulfur-(benzimidazole) 4′-demethylepipodophyllotoxin”",
  "binders": {"B1": {"name": "20-bp DNA substrate for crystallography (dsDNA)", "DNA 1": "AGCCGAGCTGCAGCTCGGCT", "DNA 2": "AGCCGAGCTGCAGCTCGGCT"}},
  "molecular_target": "hTop2βcore (human topoisomerase IIβ catalytic core) (human, UniProt Q02880 450-1206)",
  "sequence (Q02880 450-1206)": "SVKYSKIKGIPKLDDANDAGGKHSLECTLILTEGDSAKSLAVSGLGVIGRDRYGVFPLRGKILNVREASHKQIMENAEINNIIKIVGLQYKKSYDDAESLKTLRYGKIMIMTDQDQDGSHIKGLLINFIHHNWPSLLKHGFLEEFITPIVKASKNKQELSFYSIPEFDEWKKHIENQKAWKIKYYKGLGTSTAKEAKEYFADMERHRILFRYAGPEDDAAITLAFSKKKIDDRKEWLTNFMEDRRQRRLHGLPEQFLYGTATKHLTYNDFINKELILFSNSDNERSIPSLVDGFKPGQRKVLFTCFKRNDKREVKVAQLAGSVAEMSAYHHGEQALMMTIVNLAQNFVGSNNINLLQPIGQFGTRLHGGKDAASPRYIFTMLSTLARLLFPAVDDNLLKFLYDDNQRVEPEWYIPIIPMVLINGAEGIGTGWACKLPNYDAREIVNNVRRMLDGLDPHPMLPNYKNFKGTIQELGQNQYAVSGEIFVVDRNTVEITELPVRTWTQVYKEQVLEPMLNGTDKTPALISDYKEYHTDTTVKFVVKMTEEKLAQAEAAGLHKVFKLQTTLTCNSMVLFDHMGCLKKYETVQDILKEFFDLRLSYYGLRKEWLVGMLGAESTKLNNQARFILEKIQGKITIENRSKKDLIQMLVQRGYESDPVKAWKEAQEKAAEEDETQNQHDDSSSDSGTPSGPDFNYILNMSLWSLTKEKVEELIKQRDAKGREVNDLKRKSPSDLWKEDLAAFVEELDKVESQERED",
  "experiment": "X-ray crystallography (2.54 Å); 100 mM MgCl2; crystallized with 2 mM compound C-Bi (not visible in the structure); cleavage complex; Crystallization: protein and DNA (1.2-fold molar ratio to protein) with 2 mM C-Bi; reservoir 100 mM MgCl2, 50 mM sodium citrate pH 5.3, 20% MPD, 0.05% ethyl acetate, 4 °C; protein buffer 30 mM Tris-HCl pH 7.5, 70 mM NaCl, 2 mM β-mercaptoethanol, 1 mM EDTA",
  "conditions": "protein: recombinant; chain copies: 2; blunt; self-complementary, 2 copies of the same strand",
  "data": [
    {"binder": "B1", "values": [
      {"measurement": "binding result", "result": "binds"}
    ]}
  ]
}
